# Results: the supplement of paper PMC9112550, “Optimization of the antimicrobial peptide Bac7 by deep mutational scanning” (BMC Biology, 2022)
# Tested on: Escherichia coli TOP10
# Test: shrunken log2 fold change of peptide-encoding DNA abundance (4.5 h post-induction vs induction); higher = less antimicrobial activity (less host growth inhibition)
# Conditions: time post-induction: 4.5 h; library: site-saturation at positions 5, 18, 19, 20
# 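Note: peptides expressed intracellularly from a pBAD plasmid library in pooled LB shake-flask culture, induced with 0.3% L-arabinose, DNA abundance read by NGS, three biological replicates, DESeq2 with apeglm shrinkage.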
row,Sequence,shrunken log2 fold change
1,RRIRWRPPRLPRPRPRPGHLPRP,0.0651
2,RRIRVRPPRLPRPRPRPSVVPRP,0.00363
3,RRIRHRPPRLPRPRPRPPRYPRP,0.0399
4,RRIRARPPRLPRPRPRPNSNPRP,-0.0294
5,RRIRGRPPRLPRPRPRPNIHPRP,0.0679
6,RRIRMRPPRLPRPRPRPTNYPRP,-0.212
7,RRIRKRPPRLPRPRPRPDTLPRP,0.0227
8,RRIRWRPPRLPRPRPRPTYVPRP,0.0417
9,RRIRIRPPRLPRPRPRPAQTPRP,-0.0145
10,RRIRGRPPRLPRPRPRPGFTPRP,0.11
11,RRIRMRPPRLPRPRPRPLIRPRP,-0.373
12,RRIRYRPPRLPRPRPRPEVNPRP,-0.0081
13,RRIRGRPPRLPRPRPRPHRNPRP,-0.184
14,RRIRDRPPRLPRPRPRPLYPPRP,-0.277
15,RRIRHRPPRLPRPRPRPYSTPRP,0.122
16,RRIRHRPPRLPRPRPRPRWEPRP,0.136
17,RRIRRRPPRLPRPRPRPMMLPRP,-0.142
18,RRIRLRPPRLPRPRPRPCVKPRP,0.00159
19,RRIRERPPRLPRPRPRPLSCPRP,0.075
20,RRIRTRPPRLPRPRPRPVFIPRP,-0.475
21,RRIRCRPPRLPRPRPRPQGKPRP,-0.145
22,RRIRVRPPRLPRPRPRPEYFPRP,-0.285
23,RRIRFRPPRLPRPRPRPSPIPRP,-0.13
24,RRIRFRPPRLPRPRPRPSSMPRP,-0.965
25,RRIRDRPPRLPRPRPRPKQPPRP,-0.0112

row,Sequence,shrunken log2 fold change
1,RRIRKRPPRLPRPRPRPWRYPRP,-0.00865
2,RRIRNRPPRLPRPRPRPGSFPRP,-0.0339
3,RRIRIRPPRLPRPRPRPTIGPRP,-0.396
4,RRIRDRPPRLPRPRPRPYSWPRP,0.016
5,RRIRNRPPRLPRPRPRPMCHPRP,0.0429
6,RRIRFRPPRLPRPRPRPLAPPRP,0.193
7,RRIRGRPPRLPRPRPRPDVEPRP,1.27
8,RRIRIRPPRLPRPRPRPCICPRP,-0.148
9,RRIRDRPPRLPRPRPRPMRTPRP,0.519
10,RRIRWRPPRLPRPRPRPEKKPRP,0.0589
11,RRIRMRPPRLPRPRPRPTTYPRP,0.0427
12,RRIRRRPPRLPRPRPRPSWAPRP,0.157
13,RRIRIRPPRLPRPRPRPERYPRP,-0.175
14,RRIRVRPPRLPRPRPRPPLWPRP,0.646
15,RRIRVRPPRLPRPRPRPGRIPRP,0.0466
16,RRIRFRPPRLPRPRPRPVKAPRP,0.0979
17,RRIRDRPPRLPRPRPRPRMSPRP,-0.149
18,RRIRNRPPRLPRPRPRPHPWPRP,0.0589
19,RRIRIRPPRLPRPRPRPGNSPRP,-1.05
20,RRIRGRPPRLPRPRPRPDWTPRP,0.316
21,RRIRVRPPRLPRPRPRPVEDPRP,-0.378
22,RRIRQRPPRLPRPRPRPLGDPRP,0.0938
23,RRIRWRPPRLPRPRPRPDQFPRP,-0.0202
24,RRIRFRPPRLPRPRPRPFKYPRP,-1.26
25,RRIRSRPPRLPRPRPRPSPDPRP,-0.218

row,Sequence,shrunken log2 fold change
1,RRIRIRPPRLPRPRPRPFPKPRP,-0.101
2,RRIRCRPPRLPRPRPRPKTNPRP,0.00906
3,RRIRDRPPRLPRPRPRPQSDPRP,-0.0119
4,RRIRCRPPRLPRPRPRPRRPPRP,0.654
5,RRIRNRPPRLPRPRPRPRVMPRP,0.0236
6,RRIRPRPPRLPRPRPRPWYVPRP,-0.369
7,RRIRFRPPRLPRPRPRPVVAPRP,0.0597
8,RRIRKRPPRLPRPRPRPYREPRP,-0.0243
9,RRIRWRPPRLPRPRPRPSLNPRP,-0.0829
10,RRIRMRPPRLPRPRPRPSEIPRP,-0.00151
11,RRIRQRPPRLPRPRPRPPNFPRP,-0.0994
12,RRIRERPPRLPRPRPRPRCKPRP,-0.0657
13,RRIRMRPPRLPRPRPRPYPPPRP,0.133
14,RRIRIRPPRLPRPRPRPVMDPRP,-0.184
15,RRIRHRPPRLPRPRPRPNYSPRP,-0.915
16,RRIRVRPPRLPRPRPRPHFSPRP,-0.0373
17,RRIRWRPPRLPRPRPRPHFCPRP,-0.0299
18,RRIRERPPRLPRPRPRPICMPRP,-0.309
19,RRIRIRPPRLPRPRPRPTPIPRP,0.153
20,RRIRIRPPRLPRPRPRPHQMPRP,0.0234
21,RRIRCRPPRLPRPRPRPSYAPRP,-0.544
22,RRIRLRPPRLPRPRPRPYGDPRP,-0.0122
23,RRIRSRPPRLPRPRPRPFTFPRP,-0.189
24,RRIRIRPPRLPRPRPRPEWYPRP,-0.142
25,RRIRKRPPRLPRPRPRPIMIPRP,-0.0532

row,Sequence,shrunken log2 fold change
1,RRIRPRPPRLPRPRPRPQRQPRP,0.109
2,RRIRERPPRLPRPRPRPDMWPRP,-0.0874
3,RRIRLRPPRLPRPRPRPHHKPRP,-0.644
4,RRIRHRPPRLPRPRPRPQWHPRP,-0.299
5,RRIRTRPPRLPRPRPRPAPMPRP,0.202
6,RRIRDRPPRLPRPRPRPRVIPRP,-0.305
7,RRIRPRPPRLPRPRPRPYAAPRP,0.0621
8,RRIRLRPPRLPRPRPRPVPHPRP,-0.128
9,RRIRLRPPRLPRPRPRPVVHPRP,0.93
10,RRIRYRPPRLPRPRPRPHFAPRP,-0.284
11,RRIRIRPPRLPRPRPRPVRLPRP,0.499
12,RRIRMRPPRLPRPRPRPNMDPRP,0.0442
13,RRIRHRPPRLPRPRPRPGDHPRP,-0.00776
14,RRIRGRPPRLPRPRPRPQCMPRP,0.403
15,RRIRVRPPRLPRPRPRPDWHPRP,-0.0256
16,RRIRLRPPRLPRPRPRPAGAPRP,0.632
17,RRIRPRPPRLPRPRPRPGPWPRP,0.0326
18,RRIRMRPPRLPRPRPRPLADPRP,3.11
19,RRIRNRPPRLPRPRPRPPAGPRP,0.637
20,RRIRCRPPRLPRPRPRPKSVPRP,0.0362
21,RRIRGRPPRLPRPRPRPAAWPRP,0.936
22,RRIRHRPPRLPRPRPRPMNYPRP,-0.316
23,RRIRTRPPRLPRPRPRPAGHPRP,-0.0189
24,RRIRERPPRLPRPRPRPHRNPRP,-0.869
25,RRIRLRPPRLPRPRPRPRPDPRP,0.177

row,Sequence,shrunken log2 fold change
1,RRIRKRPPRLPRPRPRPISEPRP,0.213
2,RRIRPRPPRLPRPRPRPPVQPRP,0.341
3,RRIRQRPPRLPRPRPRPRQNPRP,0.402
4,RRIRPRPPRLPRPRPRPCHCPRP,0.153
5,RRIRMRPPRLPRPRPRPGEYPRP,0.434
6,RRIRWRPPRLPRPRPRPVTYPRP,0.186
7,RRIRLRPPRLPRPRPRPSTWPRP,-0.53
8,RRIRMRPPRLPRPRPRPDENPRP,2.68
9,RRIRMRPPRLPRPRPRPICSPRP,0.241
10,RRIRCRPPRLPRPRPRPEAAPRP,1.11
11,RRIRIRPPRLPRPRPRPKTRPRP,-0.117
12,RRIRWRPPRLPRPRPRPKAGPRP,0.538
13,RRIRWRPPRLPRPRPRPAMNPRP,-0.326
14,RRIRIRPPRLPRPRPRPTWCPRP,0.0363
15,RRIRQRPPRLPRPRPRPYPTPRP,0.0734
16,RRIRFRPPRLPRPRPRPNAWPRP,-0.171
17,RRIRCRPPRLPRPRPRPYPRPRP,-0.00439
18,RRIRHRPPRLPRPRPRPEDIPRP,-0.00674
19,RRIRMRPPRLPRPRPRPADYPRP,0.0259
20,RRIRMRPPRLPRPRPRPQWQPRP,0.825
21,RRIRSRPPRLPRPRPRPGGKPRP,0.0269
22,RRIRTRPPRLPRPRPRPQQTPRP,0.0814
23,RRIRMRPPRLPRPRPRPQGIPRP,-0.154
24,RRIRGRPPRLPRPRPRPPVPPRP,0.82
25,RRIRTRPPRLPRPRPRPRQPPRP,0.135

row,Sequence,shrunken log2 fold change
1,RRIRVRPPRLPRPRPRPCRFPRP,-0.464
2,RRIRLRPPRLPRPRPRPQPHPRP,0.077
3,RRIRLRPPRLPRPRPRPDMHPRP,3.46
4,RRIRDRPPRLPRPRPRPERNPRP,0.278
5,RRIRLRPPRLPRPRPRPCAPPRP,0.00325
6,RRIRCRPPRLPRPRPRPIRYPRP,-1.42
7,RRIRRRPPRLPRPRPRPKIEPRP,0.0387
8,RRIRMRPPRLPRPRPRPQMFPRP,-0.0181
9,RRIRQRPPRLPRPRPRPYRYPRP,-0.0123
10,RRIRKRPPRLPRPRPRPFTRPRP,0.0464
11,RRIRKRPPRLPRPRPRPKNIPRP,-0.253
12,RRIRYRPPRLPRPRPRPFSVPRP,-0.313
13,RRIRHRPPRLPRPRPRPYFCPRP,-0.444
14,RRIRLRPPRLPRPRPRPGDMPRP,-0.129
15,RRIRIRPPRLPRPRPRPWLFPRP,0.0545
16,RRIRMRPPRLPRPRPRPVASPRP,0.58
17,RRIRCRPPRLPRPRPRPAVAPRP,0.137
18,RRIRERPPRLPRPRPRPWWLPRP,-0.183
19,RRIRMRPPRLPRPRPRPIDYPRP,-0.0477
20,RRIRQRPPRLPRPRPRPREAPRP,0.384
21,RRIRRRPPRLPRPRPRPPWFPRP,0.479
22,RRIRMRPPRLPRPRPRPWSQPRP,-0.189
23,RRIRNRPPRLPRPRPRPTIVPRP,-0.0363
24,RRIRYRPPRLPRPRPRPVSYPRP,-0.00297
25,RRIRIRPPRLPRPRPRPNSFPRP,-0.391
